Assay results taken from patent publication US20250223364A1 (DREN BIO, published 2025).
One block for each molecule: values may come before it.

How the values were obtained:
HEK293F hDectin-1a FL = HEK293F hDectin-1a FL (UniProt Q9BXN2); assay: cell binding; HEK293F hDectin-1a FL cells
[1] = molecular target: HEK-Blue hDectin-1a cells (UniProt Q9BXN2); assay: cell binding; HEK-Blue hDectin-1a cells
Human monocytes (human) = Human monocytes (human) (UniProt Q9BXN2); assay: cell binding; human monocytes
[2] = molecular target: HEK-Blue hDectin-1b cells (UniProt Q9BXN2); assay: cell binding; HEK-Blue hDectin-1b cells
[3] = molecular target: cynomolgus monkey Dectin-1 (cynomolgus monkey); assay: flow cytometry on cynomolgus monkey monocytes
[4] = molecular target: T1, Dectin-1-expressing HEK cells (human, UniProt Q9BXN2 1-247); assay: flow cytometry; HEK cells
T1 chain: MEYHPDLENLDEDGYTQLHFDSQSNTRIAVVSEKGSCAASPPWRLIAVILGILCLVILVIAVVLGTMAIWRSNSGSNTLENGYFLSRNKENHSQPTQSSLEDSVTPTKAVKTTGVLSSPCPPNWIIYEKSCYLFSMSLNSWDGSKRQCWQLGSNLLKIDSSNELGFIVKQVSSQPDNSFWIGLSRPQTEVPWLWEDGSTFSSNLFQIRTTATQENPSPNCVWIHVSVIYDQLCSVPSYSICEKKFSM

[5] = molecular target: T2, human Dectin-1 (isoform not given) (human, UniProt Q9BXN2 1-247); assay: flow cytometry on HEK 293 cells stably overexpressing human Dectin-1
T2 construct: whole, on cells; also called hDectin-1; Dectin-1 on human monocytes
T2 sequence (looked up): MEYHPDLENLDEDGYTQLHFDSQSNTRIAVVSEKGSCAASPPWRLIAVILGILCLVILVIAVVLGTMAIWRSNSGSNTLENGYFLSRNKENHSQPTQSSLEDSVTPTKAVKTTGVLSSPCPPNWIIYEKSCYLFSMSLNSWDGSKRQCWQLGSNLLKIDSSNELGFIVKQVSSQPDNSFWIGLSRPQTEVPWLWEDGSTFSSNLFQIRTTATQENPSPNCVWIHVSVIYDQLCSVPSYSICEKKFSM

[6] = molecular target: T3, cynomolgus monkey Dectin-1 (cynomolgus monkey, UniProt A0A2K5UXY6 35-281); assay: flow cytometry on cynomolgus monkey monocytes
T3 construct: whole, on cells; also called cynomolgus Dectin-1; Dectin-1 on cynomolgus monkey monocytes
T3 sequence: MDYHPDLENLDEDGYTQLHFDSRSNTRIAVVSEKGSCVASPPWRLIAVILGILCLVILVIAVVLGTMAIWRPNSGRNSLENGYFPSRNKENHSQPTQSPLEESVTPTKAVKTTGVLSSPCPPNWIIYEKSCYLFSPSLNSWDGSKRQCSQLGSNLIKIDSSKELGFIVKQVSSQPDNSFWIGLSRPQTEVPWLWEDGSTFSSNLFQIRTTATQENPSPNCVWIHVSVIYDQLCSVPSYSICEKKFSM

EC50 (HEK293F hDectin-1a FL): 1.4 nM
EC50 [1]: 1.2 nM
EC50 (Human monocytes (human)): 0.6 nM
EC50 [2]: 9.3 nM
Molecule: 15E2

EC50 [3]: 14 nM
Molecule: 15E2 commercial anti-Dectin-1 antibody

EC50 (HEK293F hDectin-1a FL): 2.4 nM
EC50 [1]: 1.9 nM
EC50 (Human monocytes (human)): 1.4 nM
EC50 [2]: 12 nM
Molecule: GE2

EC50 [3]: 16 nM
Molecule: 259931 commercial anti-Dectin-1 antibody

EC50 [4]: 1.6 nM
B1: 2m24/RSV (bispecific antibody)
chain 1: QVQLVQSGAEVKKPGASVKVSCKSSGYTFTDYYIHWVRQAPGQGLEWMGWINPNSGDTNYAQKFQGRITMTRDTSISTAYLELSRLRSDDTAVFYCARNSGSYSFGYWGQGTLVTVSS
chain 2: DIQMTQSPSSVSASVGDRVTITCRASQGISSWLAWYQQKPGKAPKLLIFGASSLQSGVPSRFSGSGSGTDFTLTVSSLQPEDFATYYCQQAYSFPFTFGPGTKVDIE
chain 3: QVTLRESGPALVKPTQTLTLTCTFSGFSLSTSGMSVGWIRQPPGKALEWLADIWWDDKKDYNPSLKSRLTISKDTSANQVVLKVTNMDPADTATYYCARSMITNWYFDVWGAGTTVTVSS
chain 4: DIQMTQSPSTLSASVGDRVTITCKCQLSVGYMHWYQQKPGKAPKLLIYDTSKLASGVPSRFSGSGSGTAFTLTISSLQPDDFATYYCFQGSGYPFTFGGGTKLEIK

EC50 [5]: 1.45 nM
B2: Fab 2M24-mSA fusion protein (Fab, V domains shown)
VH: QVQLVQSGAEVKKPGASVKVSCKSSGYTFTDYYIHWVRQAPGQGLEWMGWINPNSGDTNYAQKFQGRITMTRDTSISTAYLELSRLRSDDTAVFYCARNSGSYSFGYWGQGTLVTVSS
VL: DIQMTQSPSSVSASVGDRVTITCRASQGISSWLAWYQQKPGKAPKLLIFGASSLQSGVPSRFSGSGSGTDFTLTVSSLQPEDFATYYCQQAYSFPFTFGPGTKVDIE

EC50 [6]: 0.3 nM
B3: anti-human Dectin-1 antibody clone 2M24 (mIgG1) (antibody, V domains shown)
VH: QVQLVQSGAEVKKPGASVKVSCKSSGYTFTDYYIHWVRQAPGQGLEWMGWINPNSGDTNYAQKFQGRITMTRDTSISTAYLELSRLRSDDTAVFYCARNSGSYSFGYWGQGTLVTVSS
VL: DIQMTQSPSSVSASVGDRVTITCRASQGISSWLAWYQQKPGKAPKLLIFGASSLQSGVPSRFSGSGSGTDFTLTVSSLQPEDFATYYCQQAYSFPFTFGPGTKVDIE
